Here are results for two molecules from article PMC6590058.

In one data set the target is SMAD4 (UniProt Q13485 1-552). In words: EMSA.
In another data set the target is T1, IRF1 (UniProt P10914 1-325).
T1 sequence: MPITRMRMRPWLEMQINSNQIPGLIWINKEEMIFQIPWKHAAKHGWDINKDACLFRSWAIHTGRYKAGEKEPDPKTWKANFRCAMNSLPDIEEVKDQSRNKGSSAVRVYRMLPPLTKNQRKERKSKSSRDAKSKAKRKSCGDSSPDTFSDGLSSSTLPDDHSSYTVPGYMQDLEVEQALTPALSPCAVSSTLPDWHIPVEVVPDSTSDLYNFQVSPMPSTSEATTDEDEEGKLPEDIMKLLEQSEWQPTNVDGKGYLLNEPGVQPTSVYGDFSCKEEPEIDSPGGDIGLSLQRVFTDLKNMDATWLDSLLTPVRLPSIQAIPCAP
In words: EMSA. A general note: Mobility shift assays separate free from complexed probe on a gel.

Chain of SMAD4 (Q13485 whole entry): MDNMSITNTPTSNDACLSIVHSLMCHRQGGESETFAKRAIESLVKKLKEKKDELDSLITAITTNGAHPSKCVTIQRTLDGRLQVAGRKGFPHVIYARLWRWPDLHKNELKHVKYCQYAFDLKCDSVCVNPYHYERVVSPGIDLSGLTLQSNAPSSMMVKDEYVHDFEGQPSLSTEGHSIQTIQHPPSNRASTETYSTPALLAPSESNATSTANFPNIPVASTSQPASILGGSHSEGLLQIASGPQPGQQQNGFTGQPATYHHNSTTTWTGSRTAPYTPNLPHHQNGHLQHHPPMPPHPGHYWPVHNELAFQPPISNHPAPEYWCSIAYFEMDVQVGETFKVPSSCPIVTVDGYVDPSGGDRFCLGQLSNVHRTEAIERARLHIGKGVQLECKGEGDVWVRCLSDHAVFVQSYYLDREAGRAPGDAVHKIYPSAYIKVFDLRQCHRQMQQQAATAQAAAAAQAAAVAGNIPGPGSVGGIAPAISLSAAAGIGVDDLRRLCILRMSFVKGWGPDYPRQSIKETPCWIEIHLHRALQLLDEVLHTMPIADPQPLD

B1: HAMP-BRE-25 (dsDNA)
DNA 1: TCTCCCGCCTTTTCGGCGCCACCAC
DNA 2: GTGGTGGCGCCGAAAAGGCGGGAGA
On to B1, for which the binding result in the data set with SMAD4 is “binds”; with IRF1 it was “no binding”.

B2: IFI6-ISRE-25 (dsDNA)
DNA 1: GAGAGGGGAAAATGAAACTGCAGAG
DNA 2: CTCTGCAGTTTCATTTTCCCCTCTC
Take B2: the binding result with SMAD4 is on record as “no binding”; in the data set with IRF1, “binds”.
